Results on 26 sequences are retold here after the DeepSol protein solubility set.

The data set in a line: soluble on expression in E. coli; label from the status in PepcDB or PDB records.
“MFYYVEILGTLPEMGKAEVEALAELGVGNVEKVDYLLVSGSVKHIGVFERLGLAHEYGLLLYEGDDIKDILDFAKGLEWRNIINGTFAVRRERMRNCMHEVNDLDKKIGGIIHSQGLRVNLSRPDTVVRVYCGNKIWLGIRIREFKGKEFEDRKADRRPFSRPIALPPRIARAMVNLTKATREVLDPFMGTGGMLIEAGLIGLKVYGLDIREDMVEGAKINLEYYGIRDYVVKVGDATKIEEVFPGKTFEAVATDPPYGNSTTLPMDRNELYKRSLESIHSVLEGRLAIAFPADFDARDVAESIGFKVLGRFYQRVHSSLSRYFYVMEV”: the “soluble on expression in E. coli” value is listed as “soluble”.
Regarding “MGAKDKATGKSWSDVQQRLQQFHSQEFLNSLRGTTQFAGTDYRSKDLTPKKSRLLADTISAVYLDGYES”, the “soluble on expression in E. coli” value is recorded as “not soluble”.
The result for “MGALERFGVDFITVDQGNGQWDIQAIEINLRKGGTTHPFMTLKLLTNGRYELSTGLFYSQQGRPKYYIATDNLQKDRYRGLLPNDLMDIIAHHRLHFDSCTETGTVFHLMGCLSQFGKLGLTSIGDSPQQAEDIYNKVVKVLDEETRVNNKQFPLFSDYTFPNLEHHHHHH” reads “not soluble”.
The result for “MGASRMTEIIDISLDITEDTVVMPENPEFDKERLASIGKEGYELYKICMSNHIGTHIDAPAHFVSEGALINQLDLDTLMGKALVVEIKDEHKISVDELKRVNLKDNIRLLFKTRNSELIAENKLTKDFVYIEEQAAGHLVKNGVKLIGLDYFTIDRIEDQDKPAHKEFAGNGVVVIEGVNLLNVEPGEYELVALPIKINADGAPARVILRRLEHHHHHH” reads “soluble”.
The result for “MGCVSSTSRSTGYYSGYESHEEPRAASRPTNSDDRGYETDSEPSSGNLIPNARSVYSESVLWHGTSMQSKIDLRSKGFDAGRKTGGATAGGNANMFMNLSREAQSETRRHHYLSSSQKEAKDFAMFADTSNPTLVRTIGVRNNLSLITDPRTGGTALMTDQSIPRKFVLGSKSSAPGENAKVFRDEMRAAGHNVSTKQAGELLREVQSDS” reads “not soluble”; that for “MGDDLPDWRNKLEPVFLEFEDGCVPEEHYYPCIRRREDEEPKISAEEEYYLMVKEVEDSKGFDIDFAKFRCVFNYRPVDLDDNELALEPETTREFMDRLCRKSLEHFNEIHSTKYEFVRFIKANHHVSAGMMYFITFEGKLLSNDDDSKQFQAKLCYCGGTPEIISCELKP”, “soluble”; that for “MGELNKSARQIVEAVGGAENIAAATHCVTRLRFALIDESKVDQEMLDQIDVVKGSFSTNGQFQVVIGQGTVNKVYAELVKETGIGESTKDEVKKASEKNMNPLQRAVKTLADI”, “soluble”.
Consider “MGEQPIFTTRAHVFQIDPNTKKNWMPASKQAVTVSYFYDVTRNSYRIISVDGAKVIINSTITPNMTFTKTSQKFGQWADSRANTVFGLGFSSEQQLTKFAEKFQEVKEAAKIAKDKTQEKIETSSNHSQASSVNGTDDEKASHAGPANTHLKSENDKLKIALTQSAANVKKWEIELQTLRESNARLTTALQESAASVEQWKRQFSICRDENDRLRNKIDELEEQCSEINREKEKNTQLKRRIEELEAELREKETELKDLRKQSEIIPQLMSECEYVSEKLEAAERDNQNLEDKVRSLKTDIEESKYRQRHLKVELKSFLEVLDGKIDDLHDFRRGLSKLGTDN”, for which the “soluble on expression in E. coli” value is on record as “not soluble”.
In the case of “MGEQPIFTTRAHVFQIDPSTKKNWVPASKQAVTVSYFYDVTRNSYRIISVDGAKVIINSTITPNMTFTKTSQKFGQWADSRANTVFGLGFSSELQLTKFAEKFQEVREAAR”, the “soluble on expression in E. coli” value is given as “soluble”.
Take “MGFKQDIATIRGDLRTYAQDIFLAFLNKYPDERRYFKNYVGKSDQELKSMAKFGDHTEKVFNLMMEVADRATDSVPLASDANTLVQMKQHSSLTTGNFEKLFVALVEYMRASGQSFDSQSWDRFGKNLVSALSSAGMK”: the “soluble on expression in E. coli” value is “soluble”.
The result for “MGGGEVKMMSLLEEMKGIYSKKGGKVKPFEKFEGELKEGYRFEYEKKLCEIDVAMFGLISGDLNPVHFDEDFASKTRFGGRVVHGMLTTSLVSAAVARLPGTVVLLEQSFRYTSPVRIGDVVRVEGVVSGVEKNRYTIDVKCYTGDKVVAEGVVKVLIW” reads “soluble”; that for “MGHHHHHHGGHMSLDMKLQQVQVLKPQLTQELRQAITLLGYHSAELAEYIDELSLENPLIERKETDTPPLSYHKTNKNRMNAQEAGLQLSNPQKTLQDALKQQSLDMNLTNTEKKIFNYLIHSLDSNGYLEEDIEEAARRLSVSAKEAEAVLAKLQSLEPAGIGARSLQECILLQLQRLPNRNEQAEMLVSAHFDAFAQKKWKTLSVETGIPLHTIQDISDDIAALHPRPGLLFARPEQDVYIEPDIFITVKNGHIAAELNTRSFPEIDLHPQYRTLLSSGSCQDTVSYLSAKYQEWRWLSRALRQRKQTITRIINELITRQKDFFLKGRSAMKPLTLREVADCLSLHESTVSRAIKGKTIQTPYGLFEMKLFFSAKAEASGDGDASNYAVKTHLENLINQEDKTKPLSDQKLVDLLYEQHGIQISRRTVAKYRDQMNIPSSAARKRYKEGGS”, “soluble”; that for “MGHHHHHHGGHMSLEEVLEAAEKIRSMEVRGAARIARFAAETLMKFAEKASDEKFDEEMRFAAETLLNTRPTAVSLYNAINYVMRYSGESVEEKRQSVIRRAREFINWVETAQRKIGEIGEKRIKDGYTVMTHCNSSAALSVIKKAHENGKRVEVIATESRPRWQGHLTVKQLREAGIEVTLIVDSAVRYFINEVDCVVVGADTITANGALINKIGTSQIALAAKEARVPFMVAAETYKFSPKTLFGELVVIEERDAREVAPEEILKLGVKVRNPAFDVTPRDYIDVIITEIGAIPPEMAYIVITERLGYAGIEEEEITLNSRHFDEGGS”, “soluble”.
The result for “MGHHHHHHGGHMSLENLNSYIKGHFADSILVKEQILKDENLITLIKNASLEVIKAYKNGNKTLLAGNGGSAADAQHIAGEFVSRFYFDRPGIASIALTTDTSILTAIGNDYGYENLFARQVQAQGVKGDVFIGISTSGNSKNILKALEFCKQKEIISIGLSGASGGAMNELCDYCIKVPSTCTPRIQEAHILIGHIICAIVEEELFGKGFSCKQEGGS” reads “soluble”; that for “MGHHHHHHGGHMSLIAITGATGQLGHYVIESLMKTVPASQIVAIVRNPAKAQALAAQGITVRQADYGDEAALTSALQGVEKLLLISSSEVGQRAPQHRNVINAAKAAGVKFIAYTSLLHADTSPLGLADEHIETEKMLADSGIVYTLLRNGWYSENYLASAPAALEHGVFIGAAGDGKIASATRADYAAAAARVISEAGHEGKVYELAGDSAWTLTQLAAELTKQSGKQVTYQNLSEADFAAALKSVGLPDGLADMLADSDVGASKGGLFDDSKTLSKLIGHPTTTLAESVSHLFNVNNEGGS”, “soluble”; that for “MGHHHHHHGGHMSLNSTSSPTIAVTAATGKLGQLVVSSLLERGVPADHIVAIVRNPAKAQGLFAPGVQIRQADYNSPEGWDRALAGVQRLLLISSSDLNDRADQHRTVIEAASAAGVELLAYTSLLKADTARMSLAADHQATEKLLTESGVPFVLLRNGWYLENYDLAQALQTGSVLGAAGTGRISAASRKDLAEAAAAALTRDGQAGKVYELAGDEAFSLSELAAELSKQSGKDVQYRNFAPEDYQRTLEGFGLPAPVAQMLVSSDEGVARGELELPNSDLRELIGRPSTSLKEAVASQLAEGGS”, “soluble”.
The result for “MGHHHHHHSHDNLSVPLMEEDLDGSSGVLFPFYDADTSMLYVVGKGDGNIRYYEVSADKPHLSYLTEYRSYNPQKGIGVMPKRGLDVSSCEIFRFYKLITTKSLIEPISMIVPRRSESYQEDIYPPTAGAQPSLTAQEWLSGMNRDPILVSLRPGSELLRPHPLPAERPIFNSMAPASPRLLNQTEKLAAEDGWRSS” reads “not soluble”; that for “MGHHHHHHSHDTISHQLEWRSLKSQETTGAGEDVEKQEQLLHCWWDCKLVQPLRKSVWQFLRNLELEIPFDPAIPLLGRYPKDYKSCCYKDTCTRMFIAALFTIAKTWNQPKCPTTIDWIKKMWHIYTMEYYAAIKNDEFMSFVGTWMKLETIILSKLSQGQ”, “not soluble”.
Turning to “MGHHHHHHSHFRNCILGLAVGDALGMPVEGLSIENIRQLYGEVRDFLPSPYGDLNAGEWTDDTEQMVVLAESILETVYFDPENFAERLKRWFLETNSRRIGPSSTKAISNLMRGVHWTRAGVFSDTCGAAMRVAPIGLVYHFSLNLVERYAEISARVTHTGTAAIGGAVAVAVAIACNVLDFSDEEMLEEVLRRVEAYDNLLAEKIRYANEISDRDVEYAVEKLGNSISSLDVVPMAFYSYFAGKDFEESLIKAVNAGGDADSIAAICGAIKGAKGFAIPERWLEGLKDREFLEELATK”, the “soluble on expression in E. coli” value was “not soluble”.
The result for “MGHHHHHHSHGVSAAVTSMSVPTPIYQTSSGQYIAIAPNGALQLASPGTDGVQGLQTLTMTNSGSTQQGTTILQYAQTSDGQQILVPSNQVVVQTASGDMQTYQIRTTPSATSLPQTVVMTSPVTLTSQTTKTDDPQLKREIRLMKNREAARECRRKKKEYVKCLENRVAVLENQNKTLIEELKTLKDLYSNKS” reads “not soluble”.
Take “MGHHHHHHSHLTTKEDVFDAIVTLKVRGAPAIGITAAFGLALAAKDIETDNVTEFRRRLEDIKQYLNSSRPTAINLSWALERLSHSVENAISVNEAKTNLVHEAIQIQVEDEETCRLIGQNALQLFKKGDRIMTICNAGSIATSRYGTALAPFYLAKQKDLGLHIYACETRPVLQGSRLTAWELMQGGIDVTLITDSMAAHTMKEKQISAVIVGADRIAKNGDTANKIGTYGLAILANAFDIPFFVAAPLSTFDTKVKCGADIPIEERDPEEVRQISGVRTAPSNVPVFNPAFDITPHDLISGIITEKGIMTGNY”: the “soluble on expression in E. coli” value is “not soluble”.
The result for “MGHHHHHHSHMAGAAEDARALFRAGVCAALEAWPALQIAVENGFGGVHSQEKAKWLGGAVEDYFMRNADLELDEVEDFLGELLTNEFDTVVEDGSLPQVSQQLQTMFHHFQRGDGAALREMASCITQRKCKVTATALKTARETDEDEDDVDSVEEMEVTATNDGAATDGVCPQPEPSDPDAQTIKEEDIVEDGWTIVRRKK” reads “soluble”.
The result for “MGHHHHHHSHMANCEGTDGDGTGCNGWFFVQAIVDKQTGDTVSEDEDENATDTGSDMVDFIDDATDICIQAERETAQVLLNMQQAQRDAQTVRALKRKYTDSIESSPLAKSPLQELSIWKWKLTRR” reads “not soluble”; that for “MGHHHHHHSHMAPGGLFLPYHSLPQPDFLASCPTRHLKLCQCPGILAENPHQFSPTFPPGKGSCQHGALPGQVSLKEAAHTEMSLSGQDLFPSPAHPPLQPFWLPFSLCLSTPFLVADNELRLPKGQICPLHVFVLANRVVLKLCANSVWEHSKGIT”, “not soluble”; that for “MGHHHHHHSHMASPSKAVIVPGNGGGDVTTHGWYGWVKKELEKIPGFQCLAKNMPDPITARESIWLPFMETELHCDEKTIIIGHSSGAIAAMRYAETHRVYAIVLVSAYTSDLGDENERASGYFTRPWQWEKIKANCPYIVQFGSTDDPFLPWKEQQEVADRLETKLHKFTDCGHFQNTEFHELITVVKSLLKVPA”, “not soluble”.
The result for “MGHHHHHHSHMCGKFTLFSEFDDIIEQFNIDQFLPEGEYHPSYNVAPSQNILTIINDGSNNRLGKLRWGLIPPCAKDEKIGYKMINARAETLAEKPSFRKPLGSKRCIIPADSFYEWKRLDPKTKIPMRIKLKSSNLFAFAGLYEKWNTLEGNLLYTCTIITIKPSELMEDIHDRMPVILTDENKKEWLNPKNTDPDYLQSLLLPYDADDMEAYQVSSLVNSPELIESH” reads “soluble”.
